Columns and labels:
[1] = target: soluble plasma fibronectin (Fn) isolated from human plasma (human) (UniProt P02751); assay: fluorescence anisotropy titration, 100 nM labelled peptide, Fn 0 to 1.4 µM in PBS, one-site-binding model
[2] = target: manually pulled Fn fibers (relaxed, fibrillar fibronectin from human plasma, 5% Fn-Cy5) (human) (UniProt P02751); assay: titration of fluorescent peptide on relaxed manually pulled Fn fibers, confocal intensity ratio peptide/Fn-Cy5, Hill fit
[3] = target: manually pulled Fn fibers (relaxed, fibrillar fibronectin from human plasma, 5% Fn-Cy5) (human) (UniProt P02751); assay: displacement assay on relaxed manually pulled Fn fibers, competitor of FnBPA5-Alexa488

Substance	Kd [1] [nM]	Kd [2] [nM]	IC50 [3] [nM]
FnBPA5-Alexa488 (peptide)	75	28	–
natIn-FnBPA5 (cold labeled) (peptide)	–	–	49

Reference: US20200181211A1
